This note sets out measurements from patent publication US20260191943A1, “Methods for Preparing Conjugated Capsular Saccharide Antigens and Uses Thereof” (PFIZER INC., priority 2022, published 2026).

Square brackets hold non-standard residues; d marks the D form. Ends that are not written are not given here. Pra = C#CC[C@H](N)C(=O)O

This data set can be described thus: PADRE peptide solubility / staying in solution. The data set is classed as physicochemical. The protocol:
It is possible that the PADRE constructs disclosed herein may have solubility limitations in aqueous solutions (<5 mg/ml max concentration) versus DMSO solutions (<10 mg/ml max concentration), so conditions for PADRE solubility were adjusted to achieve optimum click conjugation efficiency. Ionic gelling may have occurred during the CDAP or DMTMM direct incorporation of PADRE 2, as buffer matrix with high ionic strength in higher concentrated Pn3 solutions promotes gelling. Aggregation with an alkynated CRM197 batch fed approach was also observed in click conjugation reactions. To avoid potential solubility issues, the following conditions with PADRE 3 were proposed: 1. Lower the ionic strength of the reaction matrix and diafiltration matrix to 10 mM phosphate pH 7.0, 2. Slow dose addition of alkynated PADRE 3 into the reaction, and 3. make stock solution of alkynated PADRE 3 in water instead of DMSO to eliminate the need for a lyophilization step.
A reaction was run omitting DMSO from a click conjugate protocol for alkynated trimeric gp120 Epitope mimic peptides using 5 mM Sodium ascorbate, 5 mM aminoguanidine, 0.1 mM CuSO4, and 0.5 mM THPTA ligand in 10 mM phosphate buffer at pH 7.4 containing 5% DMSO for 18 hr [Schellinger et al. (2011) J Am Chem Soc 133(10):3230-3233]. […]

For “{d-ALA}KVAAWTLKAA{d-ALA}{Pra} ([dA]KVAAWTLKAA[dA][Pra]) [PADRE 3]”, the peptide solution solubility result (37° C. in the incubator at 200 rpm agitation, DMSO omitted) is given as “stayed soluble”. Where the note is “alkynated PADRE 3 stock in water, after 18 hr at room temperature”, the “stock solution staying in solution” value is “did not come out of solution”.
